According to paper PMC12435897:

What was measured:
Parameters in all cases: EC50 of β-arrestin-1 recruitment to the receptor (NanoBiT, HEK293T, agonist mode) (M (inferred, not given)) / EC50 of β-arrestin-1 recruitment to CCR3 (NanoBiT, HEK293T, agonist mode) (M (inferred, not given)) / EC50 of β-arrestin-1 recruitment to CCR5 (NanoBiT, HEK293T, agonist mode) (M (inferred, not given)): unit not given beside the values
[1] = target: T1, WT CCR3 C-terminally fused to SmBiT (human) (UniProt P51677)
T1 sequence: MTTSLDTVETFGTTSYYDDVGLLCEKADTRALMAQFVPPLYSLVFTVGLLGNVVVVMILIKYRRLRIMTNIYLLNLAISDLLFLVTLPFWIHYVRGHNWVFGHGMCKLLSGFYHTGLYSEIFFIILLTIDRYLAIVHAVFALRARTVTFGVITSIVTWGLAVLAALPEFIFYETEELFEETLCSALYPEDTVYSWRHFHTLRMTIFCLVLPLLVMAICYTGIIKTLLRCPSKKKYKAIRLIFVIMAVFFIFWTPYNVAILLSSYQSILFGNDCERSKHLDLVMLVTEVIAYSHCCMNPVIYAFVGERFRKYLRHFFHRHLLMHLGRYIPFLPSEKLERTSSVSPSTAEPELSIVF

[2] = target: WT CCR5 C-terminally fused to SmBiT (human) (UniProt P51681)
[3] = target: T2, human CCR10 on Ready-to-Assay Chem-1 cells (human) (UniProt P46092)
T2 sequence: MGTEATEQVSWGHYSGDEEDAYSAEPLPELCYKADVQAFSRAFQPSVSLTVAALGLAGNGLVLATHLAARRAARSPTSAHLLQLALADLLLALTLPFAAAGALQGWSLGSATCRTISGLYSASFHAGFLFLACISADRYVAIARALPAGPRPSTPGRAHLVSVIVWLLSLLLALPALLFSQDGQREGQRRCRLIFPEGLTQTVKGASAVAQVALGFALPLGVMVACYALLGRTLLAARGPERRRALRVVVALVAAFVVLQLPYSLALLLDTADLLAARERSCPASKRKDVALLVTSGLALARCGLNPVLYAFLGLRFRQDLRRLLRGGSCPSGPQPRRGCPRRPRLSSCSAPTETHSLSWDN

[4] = target: WT CXCR4 C-terminally fused to SmBiT (human) (UniProt P61073)
[5] = target: T3, human CCR3 on Ready-to-Assay Chem-1 cells (human) (UniProt P51677)
T3 sequence: T1 sequence

Question: Which EC50 of β-arrestin-1 recruitment to CCR3 (NanoBiT, HEK293T, agonist mode) (M (inferred, not given)) [1] does the source give for vMIP-II K10T (ligand) here?
Answer: The EC50 of β-arrestin-1 recruitment to CCR3 (NanoBiT, HEK293T, agonist mode) (M (inferred, not given)) was 5.84e-10.

Question: With “CCL3 (from UniProt P10147 24-92) (ligand; in M (unit assumed))” as the molecule, how does the EC50 of β-arrestin-1 recruitment to the receptor (NanoBiT, HEK293T, agonist mode) (M (inferred, not given)) [2] read?
Answer: The EC50 of β-arrestin-1 recruitment to the receptor (NanoBiT, HEK293T, agonist mode) (M (inferred, not given)) was 4.12e-08.

Question: CCL28 ∆2 (∆SE) (ligand) was tested. Which EC50 of calcium flux in Chem-1 cells expressing the receptor (row labelled WT CCR3 in the sheet, taken as CCR10) [3] did it give?
Answer: Its EC50 of calcium flux in Chem-1 cells expressing the receptor (row labelled WT CCR3 in the sheet, taken as CCR10) is 29 nM.

Question: For “CCL4 (from UniProt P13236 24-92) (ligand; in M (unit assumed))”, which EC50 of β-arrestin-1 recruitment to the receptor (NanoBiT, HEK293T, agonist mode) (M (inferred, not given)) [2] is on record?
Answer: The EC50 of β-arrestin-1 recruitment to the receptor (NanoBiT, HEK293T, agonist mode) (M (inferred, not given)) was 1.45e-07.

Question: CCL28 ∆3 (∆SEA) (ligand) was tested. Which EC50 of calcium flux in Chem-1 cells expressing the receptor (row labelled WT CCR3 in the sheet, taken as CCR10) [3] did it give?
Answer: The EC50 of calcium flux in Chem-1 cells expressing the receptor (row labelled WT CCR3 in the sheet, taken as CCR10) was 32 nM.

Question: For “CXCL12 (from UniProt P48061 22-93) (ligand)”, which EC50 of β-arrestin-1 recruitment to the receptor (NanoBiT, HEK293T, agonist mode) [4] is on record?
Answer: Its EC50 of β-arrestin-1 recruitment to the receptor (NanoBiT, HEK293T, agonist mode) is 1.41 nM.

Question: For CCL28 ∆1 (∆S) (ligand), which EC50 of calcium flux in Chem-1 cells expressing the receptor (row labelled WT CCR3 in the sheet, taken as CCR10) [3] is on record?
Answer: Its EC50 of calcium flux in Chem-1 cells expressing the receptor (row labelled WT CCR3 in the sheet, taken as CCR10) is 170 nM.

Question: With “CCL28 ∆4 (∆SEAI) (ligand; in M (unit assumed))” as the molecule, how does the EC50 of calcium flux in Chem-1 cells expressing the receptor (M (inferred, not given)) [5] read?
Answer: Its EC50 of calcium flux in Chem-1 cells expressing the receptor (M (inferred, not given)) is 2.79e-08.

Question: “CCL5 (from UniProt P13501 24-91) (ligand)” was tested. Which β-arrestin-1 recruitment to the receptor (NanoBiT, HEK293T, agonist mode): mean peak activity, no single EC50 (fold untreated) [2] did it give?
Answer: Its β-arrestin-1 recruitment to the receptor (NanoBiT, HEK293T, agonist mode): mean peak activity, no single EC50 (fold untreated) is 16.5.

Question: With “CCL28 ∆1 (∆S) (ligand; in M (unit assumed))” as the molecule, how does the EC50 of calcium flux in Chem-1 cells expressing the receptor (M (inferred, not given)) [5] read?
Answer: Its EC50 of calcium flux in Chem-1 cells expressing the receptor (M (inferred, not given)) is 1.72e-07.

Question: How did the EC50 of β-arrestin-1 recruitment to CCR3 (NanoBiT, HEK293T, agonist mode) (M (inferred, not given)) [1] turn out when vMIP-II R7I (ligand) was run?
Answer: Its EC50 of β-arrestin-1 recruitment to CCR3 (NanoBiT, HEK293T, agonist mode) (M (inferred, not given)) is 3.79e-10.

Question: For vMIP-II R7I/K10T/L13F (ligand), which EC50 of β-arrestin-1 recruitment to CCR5 (NanoBiT, HEK293T, agonist mode) (M (inferred, not given)) [2] is on record?
Answer: The EC50 of β-arrestin-1 recruitment to CCR5 (NanoBiT, HEK293T, agonist mode) (M (inferred, not given)) was 1.08e-07.

Question: And the EC50 of β-arrestin-1 recruitment to CCR3 (NanoBiT, HEK293T, agonist mode) (M (inferred, not given)) [1]?
Answer: The EC50 of β-arrestin-1 recruitment to CCR3 (NanoBiT, HEK293T, agonist mode) (M (inferred, not given)) was 1.11e-09.

Question: With vMIP-II L13F (ligand) as the molecule, how does the EC50 of β-arrestin-1 recruitment to CCR3 (NanoBiT, HEK293T, agonist mode) (M (inferred, not given)) [1] read?
Answer: Its EC50 of β-arrestin-1 recruitment to CCR3 (NanoBiT, HEK293T, agonist mode) (M (inferred, not given)) is 5.34e-10.

Question: With “CCL28 ∆3 (∆SEA) (ligand; in M (unit assumed))” as the molecule, how does the EC50 of calcium flux in Chem-1 cells expressing the receptor (M (inferred, not given)) [5] read?
Answer: The EC50 of calcium flux in Chem-1 cells expressing the receptor (M (inferred, not given)) was 5.22e-08.

Question: With “CCL28 ∆2 (∆SE) (ligand; in M (unit assumed))” as the molecule, how does the EC50 of calcium flux in Chem-1 cells expressing the receptor (M (inferred, not given)) [5] read?
Answer: Its EC50 of calcium flux in Chem-1 cells expressing the receptor (M (inferred, not given)) is 5.46e-08.

Question: For CCL28 ∆4 (∆SEAI) (ligand), which EC50 of calcium flux in Chem-1 cells expressing the receptor (row labelled WT CCR3 in the sheet, taken as CCR10) [3] is on record?
Answer: The EC50 of calcium flux in Chem-1 cells expressing the receptor (row labelled WT CCR3 in the sheet, taken as CCR10) was 390 nM.

B1: viral macrophage inflammatory protein II (vMIP-II) (ligand)
chain: GDTLGASWHRPDKCCLGYQKRPLPQVLLSSWYPTSQLCSKPGVIFLTKRGRQVCADKSKDWVKKLMQQLPVTAR
Question: How did the EC50 of β-arrestin-1 recruitment to CCR3 (NanoBiT, HEK293T, agonist mode) (M (inferred, not given)) [1] turn out when B1 was run?
Answer: The EC50 of β-arrestin-1 recruitment to CCR3 (NanoBiT, HEK293T, agonist mode) (M (inferred, not given)) was 1.35e-09.

B2: WT CCL28 (ligand)
chain: SEAILPIASSCCTEVSHHISRRLLERVNMCRIQRADGDCDLAAVILHVKRRRICVSPHNHTVKQWMKVQAAKKNGKGNVCHRKKHHGKRNSNRAHQGKHETYGHKTPY
Question: How did the EC50 of calcium flux in Chem-1 cells expressing the receptor (M (inferred, not given)) [5] turn out when B2 was run?
Answer: Its EC50 of calcium flux in Chem-1 cells expressing the receptor (M (inferred, not given)) is 1.42e-07.

Question: And the EC50 of calcium flux in Chem-1 cells expressing the receptor (row labelled WT CCR3 in the sheet, taken as CCR10) [3]?
Answer: The EC50 of calcium flux in Chem-1 cells expressing the receptor (row labelled WT CCR3 in the sheet, taken as CCR10) was 230 nM.
